Assay results as given in patent US8486893B2, “Treatment of conditions involving demyelination” (Biogen Idec MA Inc., priority 2004, dated 2013).
Positions of bridges follow the written chain, without caps; N, C: chain ends. No end group written: not given here. *: point of attachment. Biotin = O=C1N[C@H]2[C@H](CS[C@H]2CCCCC(=O)*)N1

Assays:
Type in all cases: cell-based, rat
[1] = test system: co-cultures of dorsal root ganglion (DRG) neurons and oligodendrocytes; test: In vitro myelination in co-cultures of DRG neurons and oligodendrocytes; conditions: for expression of MBP by western blot: 4-week-old treated cocultures, 10 μg/ml for Fc fusions; for number of myelinating MBP+ cells compared with controls: cocultures infected with lentivirus for two weeks, FIG. 10E; for MBP in cultures by western blot: cocultures infected with lentivirus, FIG. 10F
Experimental: The role of Sp35 in myelination was examined in vitro by treating co-cultures of dorsal root ganglion (DRG) neurons and oligodendrocytes with Sp35-Fc and testing for myelination by immunohistochemistry and electron microscopy. For these studies, it was necessary to first generate primary cultures of DRG neurons and of oligodendrocytes.
Female Long Evans rat E14-E17 embryonic dorsal root ganglia were cultured as described by Plant et al., J. Neurosci. 22:6083-91 (2002). Dissected DRGs were plated on poly-L-lysine-coated cover slips (100 μg/ml) for 2 weeks in the presence of fluorodeoxyuridine for days 2-6 and days 8-11 in NLA medium containing 1× B27, 100 ng/ml NGF (Invitrogen).
A2B5^+ oligodendrocytes were prepared as described in Example 1, and were harvested by trypsinization.
For coculture studies, A2B5^+ oligodendrocytes were added to DRG neuron drop cultures in the presence or absence of 10 μg/ml Sp35-Fc. The culture medium (Neurobasal medium supplemented with B27 and 100 ng/ml NGF) was changed, and fresh Sp35-Fc was added to the cells every 3 d. To identify changes in myelination, 2-week-old cultures were stained by immunohistochemical staining (“IHC”) for neurofilaments with anti-βIII-tubulin antibody to identify axons, or anti-MBP antibody to identify oligodendrocytes., and 4-week-old cultures were subjected to SDS-PAGE followed by western blot analyses to quantify the MBP. In selected examples, cells were fixed for electron microscopy studies by adding 2.5% gluteraldehyde directly onto the cover slips. Myelinated axons in the 2-week-old cultures were quantified by counting the number of myelinated internode bundles that were derived from single MBP^+ oligodendrocytes. Samples were analyzed in duplicate. Error bars denote individual determinations. P values in all studies were determined using a one-way analysis of variance.
Several peptides containing portions of the Ig domain of Sp35 were examined in vitro, by treating co-cultures of dorsal root ganglion (DRG) neurons and oligodendrocytes with Sp35 Ig peptides and testing for myelination as described in Example 5.
For co-culture studies, A2B5^+ oligodendrocytes were added to DRG neuron drop cultures in the presence or absence of 10 μg/ml Sp35-Ig-Fc (Sp35 amino acids 417-493 fused to Fc). The culture medium (Neurobasal medium supplemented with B27 and 100 ng/ml NGF) was changed, and fresh Sp35-Ig-Fc was added to the cells every 3 d. To identify changes in myelination, 2-week-old cultures were stained by immunohistochemical staining (“IHC”) for neurofilaments with anti-βIII-tubulin antibody to identify axons, or anti-MBP antibody to identify oligodendrocytes and 4-week-old cultures were subjected to SDS-PAGE followed by western blot analyses to quantify the MBP.
We performed experiments to address the relative contributions to the myelination process of Sp35 in DRG neurons as compared to oligodendrocytes. We infected DRG neurons, oligodendrocytes and co-cultures (prepared as described in Example 5) with the FL-Sp35 and DN-Sp35 lentiviral vectors described in Example 1 and performed immunohistochemical straining for myelinated MBP cells after two weeks. A 2-fold increase in MBP levels in co-cultures where both cells express DN-Sp35 and a 2-fold decrease in MBP levels in co-cultures where both cells express FL-Sp35 was observed (FIG. 10G).

Oligodendrocytes = test: Oligodendrocyte differentiation after infection with FL-Sp35 or DN-Sp35 lentivirus; conditions: lentivirus at 2 MOI per cell
Experimental: Enriched populations of oligodendrocytes were grown from female Long Evans P2 rats as described by Conn, Meth. Neurosci. 2:1-4 (Academic Press; 1990) with modifications as follows. Briefly, the forebrain was dissected and placed in Hank's buffered salt solution (HBSS; Invitrogen). The tissue was cut into 1-mm fragments and was incubated at 37° C. for 15 min in 0.01% trypsin and 10 μg/ml DNase. Dissociated cells were plated on poly-L-lysine-coated T75 tissue culture flasks and were grown at 37° C. for 10 d in DMEM medium with 20% fetal calf serum (Invitrogen). Oligodendrocyte precursors (A2B5+) were collected by shaking the flask overnight at 200 rpm at 37° C., resulting in a 95% pure population. Cultures were maintained in high-glucose Dulbecco's modified Eagle's medium (DMEM) with FGF/PDGF (10 ng/ml; Peprotech) for 1 week. Removal of FGF/PDGF allowed A2B5^+ cells to differentiate into O4^+ premyelinating oligodendrocytes after 3-7 d, and to differentiate into O4^+ and MBP^+ mature oligodendrocytes after 7-10 d. These differentiation states are readily apparent from changes in morphology: A2B5^+ cells are bipolar in shape, O4^+ premyelinating oligodendrocytes have longer and more branched processes and MBP^+ mature oligodendrocytes contain myelin sheet structures between processes.
We constructed lentiviral vectors that express wild-type and a dominant-negative form of Sp35. […]

Fyn kinase = test: Fyn expression and phosphorylation in oligodendrocytes by western blotting; conditions: lentivirus-infected oligodendrocytes, FIG. 9B
Experimental: The activity of RhoA GTPase is regulated by Fyn kinase See Liang, X, et al., J. Neurosci. 24:7140-7149 (2004). Increased Fyn expression and phosphorylation correlate with oligodendrocyte differentiation. Id. See also Osterhout, D. J., et al., J. Cell Biol. 145:1209-1218 (1999). To test if Sp35 antagonists affect Fyn function, Fyn expression and phosphorylation were measured directly by western blotting.

[2] = co-cultures where both cell types express the construct, two weeks, FIG. 10G

Ac-CLSPEKVC (SEQ ID NO:67) (disulfide 1-8 (inferred); listed as Homo sapiens) [cyclic control peptide, reference compound]
expression of MBP by western blot [1]: no increase in MBP

Biotin-GSGCLSPRKHC (SEQ ID NO:63; cysteine pairing not given here)
expression of MBP by western blot [1]: increased expression of MBP

Biotin-GSGCLSPEKVC (SEQ ID NO:65; cysteine pairing not given here) [reference compound]
expression of MBP by western blot [1]: no increase in MBP

Biotin-GSGCKHSPLRC (SEQ ID NO:64; cysteine pairing not given here) [reference compound]
expression of MBP by western blot [1]: no increase in MBP

Ac-CLSPRKHC (SEQ ID NO:66) (Ac-CLSPRKHC-NH2; disulfide 1-8 (inferred); listed as Homo sapiens) [cyclized LSPRKH peptide with terminal cysteines, acetyl at N-terminus and NH2 at C-terminus]
expression of MBP by western blot [1]: increased expression of MBP

B1: Sp35-Ig-Fc: Sp35 amino acids 417-493 fused to Fc (protein)
chain: RARIRDRKAQQVFVDEGHTVQFVCRADGDPPPAILWLSPRKHLVSAKSNGRLTVFPDGTLEVRYAQVQDNGTYLCIA
modifications: left off: a dimerising Fc or GST
notes: Sp35 amino acids 417-493 fused to Fc
expression of MBP by western blot [1]: increased
increase in MBP protein compared with Sp35-Fc ([1]; western blot, FIG. 15): comparable

B2: DN-Sp35: dominant negative Sp35, amino acid residues 34-581 of SEQ ID NO:2, expressed from lentiviral vector (protein, listed as Homo sapiens)
chain: TGCPPRCECSAQDRAVLCHRKRFVAVPEGIPTETRLLDLGKNRIKTLNQDEFASFPHLEELELNENIVSAVEPGAFNNLFNLRTLGLRSNRLKLIPLGVFTGLSNLTKLDISENKIVILLDYMFQDLYNLKSLEVGDNDLVYISHRAFSGLNSLEQLTLEKCNLTSIPTEALSHLHGLIVLRLRHLNINAIRDYSFKRLYRLKVLEISHWPYLDTMTPNCLYGLNLTSLSITHCNLTAVPYLAVRHLVYLRFLNLSYNPISTIEGSMLHELLRLQEIQLVGGQLAVVEPYAFRGLNYLRVLNVSGNQLTTLEESVFHSVGNLETLILDSNPLACDCRLLWVFRRRWRLNFNRQQPTCATPEFVQGKEFKDFPDVLLPNYFTCRRARIRDRKAQQVFVDEGHTVQFVCRADGDPPPAILWLSPRKHLVSAKSNGRLTVFPDGTLEVRYAQVQDNGTYLCIAANAGGNDSMPAHLHVRSYSPDWPHQPNKTFAFISNQPGEGEANSTRATVPFPFDIKTLIIATTMGFISFLGVVLFCLVLLFLWSRGKG
number of mature oligodendrocytes compared with the control (Oligodendrocytes): increase in the number of mature oligodendrocytes
Fyn phosphorylation (Fyn kinase): twofold increases
Fyn protein expression (Fyn kinase): twofold increases
increase in MBP levels [1, 2]: 2 fold
number of myelinating MBP+ cells compared with controls [1]: increased the total number of myelinating MBP^+ cells five- to tenfold
MBP in cultures by western blot [1]: tenfold increase

B3: FL-Sp35: mouse full length Sp35, amino acid residues 34-614 of SEQ ID NO:2, expressed from lentiviral vector (protein, listed as Homo sapiens)
chain: TGCPPRCECSAQDRAVLCHRKRFVAVPEGIPTETRLLDLGKNRIKTLNQDEFASFPHLEELELNENIVSAVEPGAFNNLFNLRTLGLRSNRLKLIPLGVFTGLSNLTKLDISENKIVILLDYMFQDLYNLKSLEVGDNDLVYISHRAFSGLNSLEQLTLEKCNLTSIPTEALSHLHGLIVLRLRHLNINAIRDYSFKRLYRLKVLEISHWPYLDTMTPNCLYGLNLTSLSITHCNLTAVPYLAVRHLVYLRFLNLSYNPISTIEGSMLHELLRLQEIQLVGGQLAVVEPYAFRGLNYLRVLNVSGNQLTTLEESVFHSVGNLETLILDSNPLACDCRLLWVFRRRWRLNFNRQQPTCATPEFVQGKEFKDFPDVLLPNYFTCRRARIRDRKAQQVFVDEGHTVQFVCRADGDPPPAILWLSPRKHLVSAKSNGRLTVFPDGTLEVRYAQVQDNGTYLCIAANAGGNDSMPAHLHVRSYSPDWPHQPNKTFAFISNQPGEGEANSTRATVPFPFDIKTLIIATTMGFISFLGVVLFCLVLLFLWSRGKGNTKHNIEIEYVPRKSDAGISSADAPRKFNMKMI
number of mature oligodendrocytes compared with the control (Oligodendrocytes): reduction in the number of mature oligodendrocytes
Fyn phosphorylation (Fyn kinase): reduced by twofold
Fyn protein expression (Fyn kinase): reduced by twofold
decrease in MBP levels [1, 2]: 2 fold
number of myelinating MBP+ cells compared with controls [1]: decreased the number of myelinating MBP^+ cells twofold
MBP in cultures by western blot [1]: twofold reduction
basal levels of myelination in comparison to control (empty vector) ([1]; overexpression in either or both cell types): significantly descreased
